According to the RNAGym collection of RNA variant scans (doi:10.1021/acssynbio.7b00057):

B1: Pistol ribozyme (parent)
chain: GGGUCGUUGUUCCAUAAUCGCGUGGAUAUGGCACGCAAGUUUCUACCGGGCACCGUAAAUGUCCGACUGGAGCCGUUCGGGCGGCUAUAAACAGACCUCAGGCCCGAAGCGUGGCGGCACCUGCCGCCGGUGGUAAAAAAGAUCGGAAGAGCACACGUCU

Variants of: B1
Assay: aptazyme ON/OFF ratio, guanine; higher = stronger switching; co-transcriptional cleavage with and without guanine

Variant	aptazyme ON/OFF ratio
U7A U8G G9A U10G U11A C12A C13G	1.41
U7A U8G G9U U10G U11G C12A C13G	1.13
U7G U8C G9C C12U C13U	1.21
U8A G9U U10G C12U C13A	1.31
U7A U8C G9A U10C C12U	1.35
U7C U8A G9A U10C U11C C13A	1.03
G9C U10A C12A C13U	1.23
U8A C12U C13U	1.38
U7G G9C U10G U11A C12A C13G	1.12
U7C U8C G9A U10A U11C C12A C13G	1.18
U7A U8C G9A U10A U11G C12A	1.06
U8A G9C U10C C12G C13U	1.05
U7C U8G U10G U11A C12G	1.14
U7C U8C G9C U11C C12A	1.22
U7A U8C U10A U11A C12U C13U	1.17
G9U U10G U11C C12A C13A	1.34
U7G G9U U10C U11G C13A	1.32
U8A U11A C12U C13G	1.21
U7C U8C G9U U10G U11A C12U C13G	1.12
U7A U8G U11G	1.95
U7A U8G G9U U10A U11G C12U	1.17
U7G U8C G9U U10C U11G C13G	1.09
G9C U10C U11A C12G C13G	1.19
G9U U10A U11G C12G C13A	1.1

Variant	aptazyme ON/OFF ratio
G9C C12G	1.35
U7G U8A G9C U10A C12G	1.01
U7A U8C G9C U11G C12G C13U	1.11
U7A U8C G9U U10G U11C C12U C13U	1.09
U8A G9C U10C U11A	0.878
U7A U10C U11A	1.2
U7A U8C G9U U10C U11A C12U C13G	1.09
U8G U10G U11C C12U C13U	1.04
U7C U8G G9U U10G U11C C12G	1.18
U7A G9A U10G U11G C12G C13G	1.09
U7G U8C G9C U10A U11C C12G	1.26
U7G G9U U11G C12A	1.82
U8G U10G U11A C12G	1.28
U7C U8A G9A U10A C12U	1.22
U7C U8C U10C C12U	1.36
U7G U8A U10A U11C	0.988
U7G G9U U10C C12A C13U	1.35
U8A G9U U10A U11G C12U	1.37
U7G U8G G9U U10A U11G C12G C13A	1.13
U7C U8C G9A U11A C12A	1.21
U7C U8G U11A C12U C13A	1.09
U7C G9U U11G C12G	1.18
U7G U8G G9U U10G C12U C13U	1.2
U8G U11C C12G C13G	1.3

Variant	aptazyme ON/OFF ratio
U7C U8A U10C C12A	1.41
U7G G9A U10G U11C C12G C13U	1.1
U7A U8G G9U U11G C12A	1.38
U7C U8C G9C U10A U11G C13G	1.14
U7A U8A U11A C12A C13A	1.33
U7A U8G G9A U10A U11C C12U	1.04
U8A G9A U10G U11C C12U C13A	1.21
G9U U11C C12G	1.83
U8G G9A U10C U11C C13G	1.03
U7C U8G G9A U10A C12A	1.26
U7C G9U U10C U11G C12A C13A	1.11
U7A U8C G9U U10A C12A C13G	1.15
U8A G9C U10C U11C C13U	0.998
U7A U8G U11A C13A	1.31
U7G U8C G9U U11G C12G C13A	1.08
U7A U8C G9A C12A C13A	1.18
U7G G9U U10A	3.84
U7C U8A G9U U10G C13U	1.31
U7A U8C U10A C12U C13U	1.22
U7A U8C G9U U10C U11C C12G	1.07
U7C U8G U10G C12A C13G	1.09
U7C U8G G9U U10C U11C C12G C13G	1.08
U7A U8A G9C U10A U11G C12U C13A	1.17
U7A U10G U11C C12A	1.76

Variant	aptazyme ON/OFF ratio
U8A U10A C12U C13U	1.25
U8C G9U U11C C12A	1.12
U7G U8G G9A U10G U11A C12A C13G	1.04
G9U U10A U11A C12G C13G	1.51
U7A U8A G9U U10C U11G C12U	1.22
U7C U8C G9A U10A C12A C13U	1.21
G9C U10G U11C C13U	1.06
G9C U10A U11A C13A	1.22
U7C G9U C13U	1.06
U7G U8C G9U U10G U11G C12G	1.31
U7G U8G G9C U10A U11G C12A C13U	1.05
U7A G9U U10G U11C C13U	1.05
U7G U8A G9A U10A C12A C13A	1.2
U7A U8G G9A U10C C12U	1.23
U7A U8G U11G C12A C13U	1.21
U7G G9C U10C U11A C12A C13G	1.15
G9U U10C U11G C12A C13G	1.22
G9A U11A C13A	1.23
U8C G9U U10A U11A C12A C13G	1.1
U7C U11A C13U	1.23
G9A U10G U11A C12U	1.04
U7G U8A G9U U10A U11A C12A C13A	1.13
U7A U8G G9C C12A	1.78
U7A G9C U10C U11G C12G	1.1

Variant	aptazyme ON/OFF ratio
U7C U8C G9A U11G C12G C13G	1.11
U7C U8A G9A U10G U11A C12A C13G	1.17
U7C U8G G9A U10G U11A	1.05
U7A U10C C12A C13A	1.35
U11C C12G C13U	1.33
U7C G9A U10C C13G	1.06
U7A G9U U10G U11A C13U	1.05
U7C U8G G9C U10A U11C C12G C13G	1.24
U7A U8A G9A U10A C12A C13G	1.23
U8C G9U U10C U11A C12U	1.17
U7A U8C G9C U10G C12A C13U	1.07
U7A U8G G9A U10C U11C C12G	1.07
U7G U8C U10G U11C C12U C13U	1.47
U7C U8C G9A U10C U11C C12G C13A	1.5
U7C U8A G9A U10A U11G C12G C13A	1.26
U8C G9A U10G C12G C13U	1.22
U7C G9A U10A C12G	1.18
U8C G9A U10A U11A C12U C13G	1.18
U7A G9C U10G C12U C13A	1.06
U7G U10G U11C C12U	1.17
U8A U10C U11C C12A C13A	1.18
U7C U8C G9U U10C U11G C12U C13U	1.21
U8A G9U U10G U11C C12U C13G	1.05
U8G G9A U10G U11G C12A C13G	1.16

Variant	aptazyme ON/OFF ratio
U7G U8G G9U C12G C13G	1.31
U7C U8A G9C U10G C12G C13A	1.32
U7A U8A G9U U10A C12A	1.27
U7C G9A U10G U11G C12A C13G	1.09
U7C U8A G9U U10A U11A C12A C13G	1.18
U7A U8C U10C U11G C12A	1.2
U8A G9C U10C U11C C12A	1.04
U7A U8G G9C U10G C12G C13G	1.17
U7C U8A U10C U11C C12U	1.09
U7C U8C G9A U10C U11G C12U C13U	1.23
U7C U8C G9C U10A U11G C12A C13U	1.14
U7A U8A G9U U10G U11A	1.03
U7G U8A G9C U10C U11C C12A C13G	1
U8A G9C U10C U11C C12U C13A	1.01
U7A U8A U11A C12G C13A	1.17
U7C U8C U10G U11A C12A C13A	1.11
U7G U8C G9A U10C U11G C12A	1.07
U7C U8A G9A U10C U11A C12A	1.12
U8C U11G C13G	1.06
U7C G9C U11C C12U C13A	1.05
U7A G9A C12U C13A	1.04
U7C U8A G9U U10G U11A C12G C13G	1.22
U7G U8C G9U U10C C12U C13U	1.26
U7G U8C U10G C13U	1.24

Variant	aptazyme ON/OFF ratio
U7G G9C U10A U11G C12A C13G	1.11
U7C U8A G9A U10G U11C	1.03
U7C U8A U10G U11C C12A C13G	1.11
U7A U8G G9U U10A C12G C13G	1.47
U7G G9C U10G U11G C12G C13A	1.11
U7C U11C C12A C13U	1.25
U7A U8A G9A U10C C12U C13U	1.19
U8G G9A U10C U11C C12A	1.08
U7G U8A G9A U10G U11G C12G	1.24
U7A U8C G9A U10C	2.35
U7G U8C G9A U10G U11A C12A C13G	1.09
U7A U8C G9A U10C C12U C13A	1.17
G9U U11G C12U C13G	1.43
U7G U8G G9U U11G C12G	1.41
U7C U10A U11C C13G	1.01
U7G G9C U11G	1.48
U7G U8C G9C U10G U11G C12U C13A	1.09
U7C G9U U10C U11G	1.18
U8A G9U U10C U11C C12G C13U	1.02
G9U U11C C12A C13G	1.36
U7A U10C U11G C12A C13A	1.28
U7G U8G G9C U10A C12A C13G	1.04
U7C U8A G9U U11C C13G	1.03
